Source: patent US20240352121A1 (NEXTCURE, published 2024)

Tests used:
[1] = target: human LAIR-1 fused to the zeta chain of CD3, on UT-140 reporter cells (human, UniProt P20963 31-164); assay: cell-based or functional assay
[2] = target: T1, LAIR-1 (human; form used for the KD not stated) (human, UniProt Q6GTX8 22-165, limits assumed); assay: method not stated (in vitro activity listed in the legend of FIG. 20)
T1 construct: also called Leukocyte Associated Immunoglobulin Like Receptor 1
T1 chain: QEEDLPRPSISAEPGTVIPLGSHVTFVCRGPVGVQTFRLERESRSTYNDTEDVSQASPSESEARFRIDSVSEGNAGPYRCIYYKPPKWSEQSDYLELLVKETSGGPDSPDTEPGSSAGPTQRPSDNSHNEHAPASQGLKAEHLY

[3] = target: T2, human LAIR-1 expressed on cells (293T cells overexpressing human LAIR-1; leukemic cells) (human, UniProt Q6GTX8 22-287); assay: cell binding, human LAIR-1 cells (FIG. 20A)
T2 construct: also called human LAIR-1 cells
T2 chain: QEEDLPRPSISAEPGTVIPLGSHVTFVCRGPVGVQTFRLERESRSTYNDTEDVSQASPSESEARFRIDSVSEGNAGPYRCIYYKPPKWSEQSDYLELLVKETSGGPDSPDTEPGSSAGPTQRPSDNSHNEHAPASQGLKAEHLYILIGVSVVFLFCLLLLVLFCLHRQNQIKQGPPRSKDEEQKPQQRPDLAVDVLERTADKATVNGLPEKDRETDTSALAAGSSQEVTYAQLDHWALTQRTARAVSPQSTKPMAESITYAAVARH

- blocks signaling IC50 [1]: 0.25 nM
- Kd [2]: 2.1 nM
- EC50 [3]: 0.15 nM
B1: h11B3 LAIR-1 mAb, Anti-LAIR-1 Variant 6 (h11B3 VL-2 / h11B3 VH-3) (antibody, V domains shown)
VH: EVQLVESGGGLVQPGGSLKLSCAASGFTFNTNAMYWVRQAPGKGLEWVGRIRSKSSNYATYYAASVKGRFTISRDDSKNTLYLQMNSLKTEDTAVYYCVRGGSGFFAYWGQGTLVTVSS
VL: DIQMTQSPSSLSASLGDRVTITCKASEDIYIRLAWYQQKPGKAPRLLISTATSLETGVPSRFSGSGSGTDYTFTISSLQPEDIATYYCQQYWSTPYTFGGGTRLEIK
notes: In the MV4-11 staining the mAb was AF647-conjugated; also called h11B3v6; humanized 11B3 LAIR-1 mAbs
